Assay results reported in publication PMC9605926, “Safety of [^177Lu]Lu-NeoB treatment: a preclinical study characterizing absorbed dose and acute, early, and late organ toxicity” (European Journal of Nuclear Medicine and Molecular Imaging, 2022).

Columns and labels:
[1] = Toxicity study, body weight (same groups as A3); assay type: in vivo, mouse
Experimental: Throughout the study, the animals were observed daily to check for physical signs of toxicity and signs of discomfort, and animals were weighed 2–3 times per week. Furthermore, at week -1, 5, 11, 19, 30, and 43, blood samples were collected by submandibular puncture from all animals that were in the study at that time point. All blood samples were analyzed for hematological parameters (hematocrit; hemoglobin; red blood cell count; white blood cell count; hemoglobin; mean cell hemoglobin concentration; mean cell volume; platelet count) on the scilVet abc + counter (Covetrus).
Statistical analysis was performed using GraphPad PRISM software (version 5). Significance levels were set at 5%. A simple binary logistic regression analysis was performed to determine a dose–effect relation between the absorbed dose and the histopathological findings in the kidneys using the log-likelihood ratio test as a significance indicator. The weight gain over time of control group 2 and treatment groups 1, 2, and 3 was compared to control group 1 by performing a two-way multiple comparison analysis of variance (ANOVA) with a Bonferroni correction. Significant outliers in the blood values set were detected with the Grubbs’ test and excluded from the data set. At a given time point, the measurements of all study groups were compared by performing a one-way ANOVA and in case of significance a Tukey test to correct for multiple comparisons. All data are represented as mean ± standard deviation (SD).

pancreas = conditions: 100 days after once weekly for 3 consecutive weeks 37 MBq/400 pmol; cited from earlier work
Source text: As mentioned above, the GRPR-expressing pancreas is often named as a potential dose-limiting organ for GRPR-targeting radionuclide therapy. Pancreatitis can be diagnosed by an increase in serum lipase and amylase levels, neither of which were consistently found in this study. Furthermore, no histopathological signs of continuous or severe pancreatic toxicity was observed.

SMILES: CC(C)CC(CC(C)C)NC(=O)[C@H](Cc1cnc[nH]1)NC(=O)CNC(=O)[C@@H](NC(=O)[C@H](C)NC(=O)[C@H](Cc1c[nH]c2ccccc12)NC(=O)[C@H](CCC(N)=O)NC(=O)[C@@H](Cc1ccccc1)NC(=O)COCC(=O)Nc1ccc(CNC(=O)CN2CCN(CC(=O)O)CCN(CC(=O)O)CCN(CC(=O)O)CC2)cc1)C(C)C [[^177Lu]Lu-NeoB, metal not drawn]
- Weight gain versus control group 1 ([1]; female treatment group 2, by the end of the study): significantly higher weight gain
- Weight gain versus control groups ([1]; male treatment group 2, first half of the study): significantly less pronounced weight gain
- Weight gain versus control groups ([1]; male treatment group 3, first half of the study): significantly less pronounced weight gain
- Pancreatic alterations (pancreas): no pancreatic alterations
